Source: paper PMC4407828 (Nature communications, 2015)

Target: GST-Tip60 (UniProt Q92993 1-513)
Assay: pull-down

Chain of GST-Tip60 (Q92993 whole entry): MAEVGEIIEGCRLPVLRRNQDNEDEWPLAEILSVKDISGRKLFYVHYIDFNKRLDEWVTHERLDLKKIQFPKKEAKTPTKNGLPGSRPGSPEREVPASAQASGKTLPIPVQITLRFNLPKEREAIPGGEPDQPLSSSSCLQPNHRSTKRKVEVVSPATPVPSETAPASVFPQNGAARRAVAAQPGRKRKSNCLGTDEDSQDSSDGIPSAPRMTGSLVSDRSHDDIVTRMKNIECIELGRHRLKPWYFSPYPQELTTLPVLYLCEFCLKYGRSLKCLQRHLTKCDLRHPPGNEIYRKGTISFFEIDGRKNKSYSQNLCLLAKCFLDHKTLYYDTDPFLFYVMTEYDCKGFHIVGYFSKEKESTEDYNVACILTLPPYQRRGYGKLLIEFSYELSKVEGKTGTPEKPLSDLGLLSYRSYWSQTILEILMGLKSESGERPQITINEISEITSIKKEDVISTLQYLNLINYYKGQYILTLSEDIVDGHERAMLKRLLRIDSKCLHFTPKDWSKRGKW

binding result: binds
B1: His-ATF3 (natural protein, UniProt P18847 1-181, looked up)
chain: MMLQHPGQVSASEVSASAIVPCLSPPGSLVFEDFANLTPFVKEELRFAIQNKHLCHRMSSALESVTVSDRPLGVSITKAEVAPEEDERKKRRRERNKIAAAKCRNKKKEKTECLQKESEKLESVNAELKAQIEELKNEKQHLIYMLNLHRPTCIVRAQNGRTPEDERNLFIQQIKEGTLQS
